In PMC12746902, “Pathogenic Gαo Mutants Drive Dominant GPCR Coupling in GNAO1 Encephalopathies” (The FASEB Journal, 2025):

T1: M2 muscarinic acetylcholine receptor with C-terminal split-YFP fragment YN (M2R-YN) (UniProt P08172 1-466)
T1 sequence (looked up): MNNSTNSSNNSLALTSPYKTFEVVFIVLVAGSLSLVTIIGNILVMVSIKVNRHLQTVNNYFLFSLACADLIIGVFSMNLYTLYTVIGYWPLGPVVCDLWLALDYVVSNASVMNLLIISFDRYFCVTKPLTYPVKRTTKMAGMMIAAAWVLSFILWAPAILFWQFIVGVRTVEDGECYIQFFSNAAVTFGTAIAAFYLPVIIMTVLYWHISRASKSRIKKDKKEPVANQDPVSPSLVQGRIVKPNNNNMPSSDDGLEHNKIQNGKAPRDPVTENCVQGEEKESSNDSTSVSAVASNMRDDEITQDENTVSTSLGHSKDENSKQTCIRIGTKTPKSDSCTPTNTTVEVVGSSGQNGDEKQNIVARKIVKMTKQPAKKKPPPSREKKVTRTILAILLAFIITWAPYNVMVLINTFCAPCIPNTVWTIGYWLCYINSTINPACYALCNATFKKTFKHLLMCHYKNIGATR

B1: Gαo T241_N242insPQ with internal split-YFP fragment YC at Gly92 (natural protein, UniProt P09471 1-354, looked up)
chain: MGCTLSAEERAALERSKAIEKNLKEDGISAAKDVKLLLLGAGESGKSTIVKQMKIIHEDGFSGEDVKQYKPVVYSNTIQSLAAIVRAMDTLGIEYGDKERKADAKMVCDVVSRMEDTEPFSAELLSAMMRLWGDSGIQECFNRSREYQLNDSAKYYLDSLDRIGAADYQPTEQDILRTRVKTTGIVETHFTFKNLHFRLFDVGGQRSERKKWIHCFEDVTAIIFCVALSGYDQVLHEDETTPQNRMHESLMLFDSICNNKFFIDTSIILFLNKKDLFGEKIKKSPLTICFPEYTGPNTYEDAAAYIQAQFESKNRSPNKEIYCHMTCATDTNNIQVVFDAVTDIIIANNLRGCGLY

Experiments:
[1] = target: M2 muscarinic acetylcholine receptor with C-terminal split-YFP fragment YN (M2R-YN) (UniProt P08172)
[2] = target: M2 muscarinic acetylcholine receptor with C-terminal split-YFP fragment YN (M2R-YN) (UniProt P08172); remark: listed apart in the source
[3] = target: T1, M2 muscarinic acetylcholine receptor …; assay: cell-based or functional assay

Molecule	reduction of ACh-mediated M2R phosphorylation (pT307/pS309 relative to total M2R) in immunoprecipitated split-YFP complexes, 100 μM ACh for 5 min [1] [%]	reduction of ACh-mediated phosphorylation (pT307/pS309 relative to total receptor) of immunoprecipitated GFP-M2R with co-expressed UNTAGGED Gαo ins4A, 100 μM ACh for 5 min [2] [%]	reduction of ACh-mediated phosphorylation (pT307/pS309 relative to total receptor) of immunoprecipitated GFP-M2R with co-expressed UNTAGGED Gαo insPQ, 100 μM ACh for 5 min [3] [%]
Gαo ins4A (four-alanine insertion in the C-terminal α5-helix) with internal split-YFP fragment YC at Gly92 (from UniProt P09471 1-354) (natural protein)	> 90	95	
B1			30
